Data set [1] addresses T1, APOBEC3A (A3A) WT (human, UniProt P31941 1-199). Put plainly: EMSA; 20 nM DNA; NMR: 25 mM sodium phosphate pH 6.9, 10 mM DTT, 25 C, 0.074 mM A3A; EMSA: protocol of Byeon et al. (ref 16), buffer not given, 20 nM DNA, 25-100 uM A3A.
The target of the next data set is APOBEC3A D131E (human, UniProt P31941 1-199, D131E). Put plainly: EMSA; 60 or 80 uM protein; similar to WT; NMR: 25 mM sodium phosphate pH 6.9, 10 mM DTT, 25 C, 0.074 mM A3A; EMSA: protocol of Byeon et al. (ref 16), buffer not given, 20 nM DNA, 25-100 uM A3A. On the technique in general: Mobility shift assays separate free from complexed probe on a gel.
APOBEC3A D131E, sequence (P31941 whole entry D131E): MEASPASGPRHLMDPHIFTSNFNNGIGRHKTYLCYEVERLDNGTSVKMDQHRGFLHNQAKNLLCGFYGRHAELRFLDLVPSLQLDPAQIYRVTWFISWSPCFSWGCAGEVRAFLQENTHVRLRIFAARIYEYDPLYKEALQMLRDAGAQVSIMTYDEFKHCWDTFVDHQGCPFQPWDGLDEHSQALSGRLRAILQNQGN
For the next data set, the target named is APOBEC3A Y130F (human, UniProt P31941 1-199, Y130F). The description is as above.
APOBEC3A Y130F, sequence (P31941 whole entry Y130F): as the sequence (P31941 whole entry D131E) above, with Y130F, E131D counted along it
A further data set deals with APOBEC3A E72Q (human, UniProt P31941 1-199, E72Q). The data set is described as above.
APOBEC3A E72Q, sequence (P31941 whole entry E72Q): as the sequence (P31941 whole entry D131E) above, with E72Q, E131D counted along it
The target of data set [2] is T1, APOBEC3A (A3A) WT. Put plainly: NMR titration (1H-15N HSQC); 25 mM sodium phosphate pH 6.9, 10 mM DTT, 25 C; Zn2+ enzyme; NMR: 25 mM sodium phosphate pH 6.9, 10 mM DTT, 25 C, 0.074 mM A3A; EMSA: protocol of Byeon et al. (ref 16), buffer not given, 20 nM DNA, 25-100 uM A3A.

T1 sequence (P31941 whole entry): as the sequence (P31941 whole entry D131E) above, with E131D counted along it

B1: JL987 70-nt ssDNA (ssDNA)
DNA: ATTATTATTATTATTATTATTATTATTATTATTATTATTTCATTTATTTATTTATTTATTTATTTATTTA
For the molecule B1, in the data set with APOBEC3A (A3A) WT [1], the binding result was “binds”.

B2: JL988 80-nt ssDNA (ssDNA)
DNA: ATTATTATTATTATTATTATTATTATTATTATTATTATTATTATTTCATTTATTTATTTATTTATTTATTTATTTATTTA
In the case of B2, the binding result with APOBEC3A D131E, with APOBEC3A Y130F, with APOBEC3A E72Q and with APOBEC3A (A3A) WT [1] was “binds” throughout.

B3: JL1181 9-nt ssRNA (ssRNA)
RNA: AUUUCAUUU
The term Kd denotes the constant that tells how readily two partners part at equilibrium. Read a high Kd as a looser complex. B3 registered a Kd with APOBEC3A (A3A) WT [2] of 420 ± 70 µM.

B4: JL986 60-nt ssDNA (ssDNA)
DNA: ATTATTATTATTATTATTATTATTATTATTATTTCATTTATTTATTTATTTATTTATTTA
With B4, in the data set with APOBEC3A (A3A) WT [1], the binding result is “binds”.

For the origin of these results see paper PMC3902935.
